Positions count from the first letter of the chain named. Where two headings read alike, the source gives them in different places.
T1: human GITR (full length, on cells) (human, UniProt Q9Y5U5 26-241)
T1 sequence (looked up): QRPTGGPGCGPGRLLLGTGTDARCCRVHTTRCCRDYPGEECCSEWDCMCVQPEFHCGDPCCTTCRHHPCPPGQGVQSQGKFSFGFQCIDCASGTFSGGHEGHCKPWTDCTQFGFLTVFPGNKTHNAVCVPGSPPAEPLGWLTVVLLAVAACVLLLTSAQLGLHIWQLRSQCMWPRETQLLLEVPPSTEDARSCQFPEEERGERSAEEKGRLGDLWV

T2: hGITR-ECD-hFc (human, UniProt Q9Y5U5 26-161)
T2 construct: ECD put first; also called immunogen A; human GITR extracellular domain protein with hFc tag; not shown: human IgG Fc fragment (hFc) of the pCpC vector
T2 chain: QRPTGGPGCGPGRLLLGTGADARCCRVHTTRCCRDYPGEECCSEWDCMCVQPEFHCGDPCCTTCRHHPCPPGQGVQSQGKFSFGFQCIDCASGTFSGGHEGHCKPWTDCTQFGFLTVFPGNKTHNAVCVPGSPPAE

B1: 3503-mAb019 (antibody, V domains shown)
VH: QVQLVESGGGVVQPGRSLRLSCAASGFTFSSYGMHWVRQAPGKGLEWVAVIWYAGSRKFYADSVEGRFTISRDNSKNTLYLQMSSVRPEDTAVYYCARGGSLDGGFFYYGMDVWGQGTTVTVSS
VL: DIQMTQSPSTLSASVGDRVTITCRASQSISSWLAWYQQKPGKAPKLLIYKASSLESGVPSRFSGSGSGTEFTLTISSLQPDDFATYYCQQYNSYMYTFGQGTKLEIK
notes: Chimeric antibody purified from hybridoma supernatant of Harbour H2L2 mice: human variable regions with rat constant regions; also called 96A10H9; chimeric anti-GITR antibody
B2: 3503-hab019 (antibody, V domains shown)
VH: B1 VH
VL: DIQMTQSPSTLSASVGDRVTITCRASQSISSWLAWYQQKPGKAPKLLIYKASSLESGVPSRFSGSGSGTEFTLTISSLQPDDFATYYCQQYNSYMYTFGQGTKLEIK
notes: also called 96A10H9; fully human anti-GITR antibody
B3: 3503-hab019e2 (antibody, V domains shown)
VH: B1 VH with S84N, V86L, P88A, D103E
VL: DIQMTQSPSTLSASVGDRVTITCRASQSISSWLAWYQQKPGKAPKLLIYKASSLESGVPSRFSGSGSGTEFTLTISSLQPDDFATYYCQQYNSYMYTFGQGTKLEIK
notes: also called 96A10H9; engineered fully human anti-GITR antibody
B4: 3503-hab070 (antibody, V domains shown)
VH: QVQLVESGGGVVQPGRSLRLSCAASGFTFSSYGMHWVRQAPGKGLEWVAVIWYETSNKFYVDSVKGRFTISRDNSKNTLYLQMNSLRAEDTAVYYCARYGASSGWYWYFDLWGRGTLVTVSS
VL: DIQLTQSPSFLSASVGDRVTITCRASQGISSFLAWYQQKPGKAPKLLIYAASTLQSGVPSRFSGSGSGTEFTLTISSLQPEDFATYCCQQLNSYPFTFGQGTKLEIK
notes: also called 272G5E1; fully human anti-GITR antibody
B5: 3503-mAb070 (antibody, V domains shown)
VH: B4 VH
VL: B4 VL
notes: Chimeric antibody purified from hybridoma supernatant of Harbour H2L2 mice: human variable regions with rat constant regions; also called 272G5E1; chimeric anti-GITR antibody
B6: 3503-hab064 (antibody, V domains shown)
VH: B4 VH with F59Y, V61A, S85N, A101G, S102N
VL: B4 VL with K42T
notes: also called 265G9A11; fully human anti-GITR antibody
B7: 3503-hab076 (antibody, V domains shown)
VH: B4 VH with F59Y, V61A
VL: B4 VL with F32Y
notes: also called 277C12G4; fully human anti-GITR antibody
B8: 3503-hab070e1 (antibody, V domains shown)
VH: B4 VH
VL: B4 VL with C87Y
notes: also called 272G5E1; engineered fully human anti-GITR antibody
B9: 3503-mAb076 (antibody, V domains shown)
VH: B4 VH with F59Y, V61A
VL: B4 VL with F32Y
notes: Chimeric antibody purified from hybridoma supernatant of Harbour H2L2 mice: human variable regions with rat constant regions; also called 277C12G4; chimeric anti-GITR antibody
B10: 3503-mAb064 (antibody, V domains shown)
VH: B4 VH with F59Y, V61A, S85N, A101G, S102N
VL: B4 VL with K42T
notes: Chimeric antibody purified from hybridoma supernatant of Harbour H2L2 mice: human variable regions with rat constant regions; also called 265G9A11; chimeric anti-GITR antibody

Columns and labels:
[1] = molecular target: T1, human GITR (full length, on cells); experiment: cell-based or functional assay
[2] = molecular target: T1, human GITR (full length, on cells); experiment: flow cytometry (FACS) on 293F-hGITR cells, MFI curve fit
Method: (§1) The pIRES plasmid with the monkey-derived GITR full-length gene was transfected into the HEK293 cell line to construct a HEK293 stable cell line containing monkey GITR (herein referred to as HEK293-cGITR stable cell line), wherein the database accession number of the monkey GITR nucleotide sequence is XP_005545180.1. The tool antibody Tab9H6v3 was constructed with reference to the patent (US_2015_0064204_A1). […] The medium was aspirated, and the cells were incubated with chimeric anti-GITR antibody or IgG1 isotype control antibody in PBS+2% FBS for 1 hour so that the antibody binds to the GITR protein expressed on the cell surface. Cells were collected and washed, and then incubated with anti-human antibody conjugated with fluorescent dye at 4° C. for 1 hour. Mean fluorescence intensity (MFI) of chimeric anti-GITR antibodies bound to cells expressing hGITR or cGITR was determined by flow cytometry. The EC50 of the fitting curve was calculated by GraphPad Prism software. The antibody to be tested can bind to human or monkey GITR protein on the cell surface. The data in the table is the average fluorescence intensity values of the cell populations measured by MFI.

[3] = molecular target: T3, monkey GITR (full length, on cells) (monkey); experiment: flow cytometry (FACS) on 293F-cGITR cells, MFI curve fit
T3 construct: whole, on cells; also called cGITR
Method: as §1

[4] = molecular target: T1, human GITR (full length, on cells); experiment: cell-based or functional assay; remark: listed apart in the source
[5] = molecular target: T1, human GITR (full length, on cells); experiment: cell-based or functional assay; remark: listed apart in the source
[6] = molecular target: T3, monkey GITR (full length, on cells); experiment: flow cytometry (FACS) on 293F-cGITR cells, MFI curve fit; remark: listed apart in the source
Method: as §1

[7] = molecular target: T1, human GITR (full length, on cells); experiment: flow cytometry (FACS) on 293F-hGITR cells, MFI curve fit; remark: listed apart in the source
Method: as §1

[8] = molecular target: T4, cGITR-ECD-hFc (rhesus; human, UniProt F7DDV8 14-149); experiment: ELISA, cGITR-ECD-hFc coated on plate, HRP anti-human Fab detection
T4 sequence (F7DDV8 entry or part of it): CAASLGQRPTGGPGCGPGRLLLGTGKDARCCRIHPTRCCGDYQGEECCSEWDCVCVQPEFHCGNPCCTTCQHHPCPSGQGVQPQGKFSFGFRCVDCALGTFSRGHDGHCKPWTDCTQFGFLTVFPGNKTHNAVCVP

[9] = molecular target: T2, hGITR-ECD-hFc; experiment: ELISA, hGITR-ECD-hFc coated on plate, HRP anti-human Fab detection
Method: (§2) HGITR-ECD-hFc protein and cGITR-ECD-hFc protein were diluted to 1 μg/ml with PBS hydrochloric acid buffer (pH 7.2), and 100 μl dilution was added to 96-well ELISA microplate, and incubated at 4° C. overnight. The microplate was washed three times with 300 μl/well wash buffer PBST (PBS+0.05% Tween-20), 300 μl blocking buffer (PBST+1% BSA) was added to each well, and incubated at room temperature for 2 hours. The plate was washed three times, 100 μl, 10 μg/ml anti-GITR antibody was added to each well, and was incubated at 37° C. for 1 hour. The plate was washed three times, 100 μl horseradish peroxidase (HRP) labeled anti-human Fab secondary antibody was added to each well, and was incubated at 37° C. for half an hour. The plate was washed three times, 100 μl tetramethylbenzidine (TMB) was added to each well. After 15 minutes of color development, 50 μl 1N HCl termination solution was added to each well, and the OD450 value was read with a plate reader. The EC50 of the binding curve was calculated by GraphPad Prism software.

[10] = molecular target: T4, cGITR-ECD-hFc; experiment: ELISA, cGITR-ECD-hFc coated on plate, HRP anti-human Fab detection; remark: listed apart in the source
[11] = molecular target: T2, hGITR-ECD-hFc; experiment: ELISA, hGITR-ECD-hFc coated on plate, HRP anti-human Fab detection
Method: as §2
The binding activity of the engineered fully human anti-GITR antibody to the hGITR-ECD-hFc protein or the cGITR-ECD-hFc protein was detected by an enzyme-linked immunosorbent assay iaccording to the step (1) of Example 5.

[12] = molecular target: T2, hGITR-ECD-hFc; experiment: SPR (Biacore T200), hGITR-ECD-hFc immobilised on CM5 chip, antibody as analyte
Method: (§3) The antigen hGITR-ECD-hFc was immobilized on the chip surface in manual mode using the running buffer HBS-EP+(10 mM HEPES, 150 mM NaCl, 3 mM EDTA, 0.05% P20, pH 7.4). First, a fresh mixture of 50 mM NHS and 200 mM EDC was used to activate the flow cell 4 of the tandem S CM5 sensor chip. The antigen was then diluted to 1 μg/ml with 10 mM NaAC (pH 5.0) and was injected into flow cell 4 for approximately 40 seconds. Finally, 1 M ethanolamine was used to block the remaining active coupling sites.
Buffer flow was maintained for 600 seconds to determine dissociation. To remove the test antibody from the surface, 10 mM Glycine-HCl (pH 1.5) was injected into flow cells 1 and 4 at a flow rate of 10 μ L/min for 30 seconds. The above steps were repeated for each concentration of continuously diluted antibodies.
The KD value of each antibody was evaluated using Biacore T200 evaluation software 3.0, where flow cell 1 was used as a reference flow cell.

[13] = molecular target: T2, hGITR-ECD-hFc; experiment: SPR (Biacore), hGITR-ECD-hFc immobilised on CM5 chip, antibody as analyte
Method: as §3
Binding kinetics and affinity of the engineered fully human anti-GITR antibody to the antigen hGITR-ECD-hFc protein were tested by Biacore according to step (5) of Example 5, and the results are shown in Table 17.

Binder	Activation of NF-κB activity, EC50 (nM), Coupling (Crosslinking) [1] [nM]	EC50 [2] [nM]	EC50 [3] [nM]	Activation of NF-κB activity, EC50 (nM), Coupling [4] [nM]	Activation of NF-κB activity, EC50 (nM), Non-coupling [4] [nM]	Activation of NF-κB activity, EC50 (nM), Coupling [5] [nM]	Activation of NF-κB activity, EC50 (nM), Non-coupling [5] [nM]	EC50 [6] [nM]	EC50 [7] [nM]	EC50 [8] [nM]	EC50 [9] [nM]	EC50 [10] [nM]	EC50 [11] [nM]	Kd [12] [nM]	koff [12] [s⁻¹]	kon [12] [M⁻¹ s⁻¹]	Kd [13] [nM]	koff [13] [s⁻¹]	kon [13] [M⁻¹ s⁻¹]	Activation of NF-κB activity, EC50 (nM), Non-coupling (Non-Crosslinking) [1] [nM]
B1	12.5	0.07	0.01																	
B2		0.222	0.418	4.42	0.281	10.9	0.166	0.53	0.25	0.0717	0.0791	0.115	0.11	0.401	0.000205	512000				
B3		0.155	0.31			1.74	0.139					0.096	0.089				0.384	0.00023	600000	
B4		0.141	0.258	2.55	0.276	5.78	0.0959	0.301	0.203	0.0529	0.0544	0.063	0.078	0.251	0.000185	737000				
B5	> 0.09	0.358	0.198																	0.062
B6				2.8	0.177			0.254	0.194	0.0369	0.0443			0.592	0.000315	532000				
B7				1.33	0.127			0.58	0.173	0.0551	0.0593			1.03	0.000684	664000				
B8		0.169	0.264			4.08	0.0957					0.062	0.074				0.537	0.000381	710000	
B9	> 0.27	0.152	0.226																	> 0.09
B10	0.101	0.385	0.404																	> 0.2

Source: patent US20220119541A1 (PHARMAEXPLORER, published 2022)
